Assay [1] deals with T1, TRPV1 (Rattus norvegicus, UniProt O35433).
T1 construct: expressed in transfected cells; host or cells: Xenopus laevis oocytes injected with cRNA
The assay can be described thus: cell-based. Here is the method:
To control the expression level of the TRPV1 channels, experiments were initiated with a first activation of TRPV1 with 1 μM capsaicin (CAP). […] This activation gives an inward non-selective cation current. […] Before application of HCRG21, cells are washed with ND96 to remove any presence of […]. […] However, when rHCRG21 was co-applied together with the agonist capsaicin, a reduction of the current was observed (Figure 5b). […] A concentration–response curve was constructed in order to assess the concentration dependence of the rHCRG21 induced effect. The IC50 value yielded 6.9 ± 0.4 μM (Figure 5c).
Figure 5 Activity profile of rHCRG21 (10 μM) on the TRPV1 receptor. The figures show the results of one representative experiment. Whole-cell current traces in control and rHCRG21 conditions are shown. […] All data represent the average of at least three independent experiments (n ≥ 3) and are presented as mean ± standard error; (c) Concentration–response curve for rHCRG21 on TRPV1 receptor.
For the expression of rKv1.1, hKv1.3, rKv1.4, rKv1.5, rKv1.6, Shaker IR, hERG, and TRPV1 in Xenopus oocytes, the linearized plasmids were transcribed using the T7 or SP6 mMESSAGE-mMACHINE transcription kit (Ambion, Austin, TX, USA). The harvesting of stage V–VI oocytes from anaesthetized female Xenopus laevis frog was previously described. Oocytes were injected with 50 nL of cRNA at a concentration of 1 ng/nL using a micro-injector (Drummond Scientific, Broomall, PA, USA). The oocytes were incubated in a solution containing (in mM): NaCl, 96; KCl, 2; CaCl2, 1.8; MgCl2, 2 and HEPES, 5 (pH 7.4), supplemented with 50 mg/L gentamicin sulfate.
Two-electrode voltage-clamp recordings were performed at room temperature (18–22 °C) using a Geneclamp 500 amplifier (Molecular Devices, Sunnyvale, CA, USA) controlled by a pClamp data acquisition system (Axon Instruments, Foster City, CA, USA). Whole cell currents from oocytes were recorded 1–4 days after injection. Bath solution composition was ND96 (in mM): NaCl, 96; KCl, 2; CaCl2, 1.8; MgCl2, 2, and HEPES, 5 (pH 7.4). Voltage and current electrodes were filled with 3 M KCl. Resistances of both electrodes were kept between 0.8 and 1.5 MΩ. The elicited currents were filtered and sampled at, respectively, 1 kHz and 10 kHz (for potassium currents) and at, respectively, 0.2 kHz and 0.5 kHz (for TRPV1 currents), using a four-pole low-pass Bessel filter. Leak subtraction was performed using a –P/4 protocol. KV1.1–KV1.6 and Shaker currents were evoked by 500 ms depolarizations to 0 mV followed by a 500 ms pulse to −50 mV, from a holding potential of −90 mV. Current traces of hERG channels were elicited by applying a +40 mV prepulse for 2 s followed by a step to −120 mV for 2 s. TRPV1 currents were measured in ND96 solution using a protocol of −90 mV during 400 s. The recording chamber was perfused at a rate of 2 mL·min^−1 with a ND96 solution. As previously described, capsaicin (2 μM) was used as an agonist and capsazepine (10 μM) as an antagonist of TRPV1. Capsaicin and capsazepine were purchased from Sigma. All data represent at least 3 independent experiments (n ≥ 3) in which independent experiments represent experiments on different cells expressing TRPV1 channel and are presented as mean ± standard error.

The target in assay [2] is trypsin. As to conditions: cited from earlier work. The text has this:
The HCGS peptide subfamily and their evolutionary relationships were described in details previously. […] It is shown, that the first known H. crispa analgesic Kunitz-type peptides, APHC1–APHC3, have a Thr residue (instead of Lys or Arg) at position P1, similar to other representatives of the analgesic cluster (Figure 1a,b).

Assay [3] deals with α-chymotrypsin (Bos taurus, UniProt P00766). As to conditions: cited from earlier work. The source says:
The HCGS peptide subfamily and their evolutionary relationships were described in details previously. […] Moreo ...

Assay [4] deals with T1, TRPV1. The settings on record: cited from earlier work. The text has this:
They are the first sea anemone peptide characterized as TRPV1 modulators. […] It belongs to the family of polymodal TRP channels, serving as a molecular cellular sensor, which is activated by a wide spectrum of physical and chemical stimuli. They have diverse biophysical properties such as cation selectivity, specific mechanisms of activation, and they play the main role in ma ... || To control the expression level of the TRPV1 channels, experiments were initiated with a first activation of TRPV1 with 1 μM capsaicin (CAP). […] This activation gives an inward non-selective cation current. […] Before application of HCRG21, cells are washed with ND96 to remove any presence of capsazepine. […] Similarly ... || (+ 3 further places)

Assay [5] deals with α-chymotrypsin. The experiment in a line: enzyme inhibition kinetics (Dixon method); trypsin with BAPNA, α-chymotrypsin with BTEE as substrate; substrate concentrations 133 and 65 mM; both enzymes 215 nM; peptide 0 up to 3.2 mM; three parallel experiments.
For assay [6], the target named is trypsin. The assay is described as above.
Assay [7] deals with transient receptor potential family member vanilloid 1 (TRPV1) (UniProt O35433).
transient receptor potential family member vanilloid 1 (TRPV1), sequence (O35433 whole entry): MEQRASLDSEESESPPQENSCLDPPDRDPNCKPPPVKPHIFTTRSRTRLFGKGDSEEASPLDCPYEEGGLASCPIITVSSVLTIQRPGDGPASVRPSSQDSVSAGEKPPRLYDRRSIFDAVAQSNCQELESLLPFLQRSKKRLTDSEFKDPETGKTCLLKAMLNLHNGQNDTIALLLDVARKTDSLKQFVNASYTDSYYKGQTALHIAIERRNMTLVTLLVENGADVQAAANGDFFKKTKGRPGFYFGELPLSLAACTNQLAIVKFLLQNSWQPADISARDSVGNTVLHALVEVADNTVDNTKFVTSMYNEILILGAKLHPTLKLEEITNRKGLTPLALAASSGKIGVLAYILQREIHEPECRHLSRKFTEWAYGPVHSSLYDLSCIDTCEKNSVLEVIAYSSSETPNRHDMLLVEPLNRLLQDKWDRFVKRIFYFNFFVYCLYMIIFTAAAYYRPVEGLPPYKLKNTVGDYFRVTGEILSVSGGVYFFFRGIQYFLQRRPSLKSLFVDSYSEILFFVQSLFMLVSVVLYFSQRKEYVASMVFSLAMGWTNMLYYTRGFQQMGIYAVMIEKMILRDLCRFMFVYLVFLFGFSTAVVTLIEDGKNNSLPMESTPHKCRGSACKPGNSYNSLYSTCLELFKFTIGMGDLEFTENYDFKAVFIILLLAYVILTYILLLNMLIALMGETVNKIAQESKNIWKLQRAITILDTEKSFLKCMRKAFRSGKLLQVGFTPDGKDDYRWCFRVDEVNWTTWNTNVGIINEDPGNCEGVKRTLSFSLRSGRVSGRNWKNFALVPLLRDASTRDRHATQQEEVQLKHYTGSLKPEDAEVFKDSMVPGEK

Like-named read-outs stand apart in the source and are kept apart here. Where no end group is shown, it is not given here. A value given as a limit tells only on which side of the number the result lay.

T1 sequence (O35433 whole entry): as above

Regarding `Oc1cc2c(cc1O)CN(C(=S)NCCc1ccc(Cl)cc1)CCC2` [capsazepine, reference compound], the “effect on capsaicin-activated TRPV1 (control antagonist)” value at TRPV1 [1] is “closes the channels allowing the current levels to return to zero”.

One may read the Ki as a dissociation constant, usually derived from enzyme kinetics or from competition with a known ligand. As for “AsKC3: Kunitz-type peptide from Anemonia sulcata (UniProt Q9TWF8) (INGDCELPKVVGRCRARFPRYYYNLSSRRCEKFIYGGCGGNANNFHTLEECEKVCGVRS; ends and bridges not checked; cysteine pairing not given here; UniProt Q9TWF8 1-59, looked up)”, the inhibitory constant (Ki) at trypsin [2] is less than 0.3 nM.

`COc1cc(CNC(=O)CCCC/C=C/C(C)C)ccc1O` [capsaicin, reference compound]: the “effect on TRPV1 (control agonist)” value on TRPV1 [1] is recorded as “opens the channels”.

Regarding “AsKC2: kalicludine from Anemonia sulcata (UniProt Q9TWF9) (INKDCLLPMDVGRCRARHPRYYYNSSSRRCEKFIYGGCRGNANNFITKKECEKVCGVR; ends and bridges not checked; cysteine pairing not given here; UniProt Q9TWF9 1-58, looked up)”, the inhibitory constant (Ki) on trypsin [2] was less than 0.3 nM.

With “AsKC1: kalicludine from Anemonia sulcata (UniProt Q9TWG0) (INKDCLLPMDVGRCRASHPRYYYNSSSKRCEKFIYGGCRGNANNFHTLEECEKVCGVR; ends and bridges not checked; cysteine pairing not given here; UniProt Q9TWG0 1-58, looked up)”, the Ki on trypsin [2] is less than 0.3 nM.

For “APHC3: H. crispa analgesic Kunitz-type peptide (UniProt C0HJF3)”, in the assay with α-chymotrypsin [3], the inhibition constant Ki is 7000 nM.

A word on the EC50: it is the midpoint of the concentration-response curve. In the case of “APHC1: H. crispa analgesic Kunitz-type peptide (UniProt B2G331) (GSICLEPKVVGPCTAYFRRFYFDSETGKCTVFIYGGCEGNGNNFETLRACRAICRA; three disulfides (Kunitz fold)) [reference compound]”, in the assay with TRPV1 [4] (read-out: EC50, decrease of capsaicin induced currents through TRPV1), the EC50 is 54 ± 4 nM.

Molecule “recombinant HCRG21, Kunitz-type peptide from the sea anemone Heteractis crispa (from UniProt P0DL86 1-56)” yielded a Ki with α-chymotrypsin [5] of 700 nM.

“APHC2: H. crispa analgesic Kunitz-type peptide (UniProt C0HJF4)”: the Ki with α-chymotrypsin [3] is 4500 nM.

Turning to “APHC1: H. crispa analgesic Kunitz-type peptide (UniProt B2G331)”, the Ki in the assay with α-chymotrypsin [3] was 5000 nM.

B1: DkTx: double-knot toxin from the Chinese bird spider Ornithoctonus huwena (peptide, UniProt P0CH43 1-79, looked up)
Tau-theraphotoxin-Hs1a: DCAKEGEVCSWGKKCCDLDNFYCPMEFIPHCKKYKPYVPVTTNCAKEGEVCGWGSKCCHGLDCPLAFIPYCEKYRGRND
Regarding B1, in the assay with TRPV1 [4] (conformational change in the receptor upper pore region), the “effect of DkTx on TRPV1 current” value is “enhances the ion current through the channel”. Besides, the TRPV1 agonism result with TRPV1 [4] (ref 48 (DkTx), ref 49 (VaTx1–VaTx3), ref 50 (BmP01)) is listed as “agonists”.

B2: recombinant HCRG21, Kunitz-type peptide from the sea anemone Heteractis crispa (peptide)
chain: RGICSEPKVVGPCTAYFRRFYFDSETGKCTPFIYGGCEGNGNNFETLRACRAICRA
B2 returned a Ki in the assay with trypsin [6] of 200 nM. The IC50 of the inhibition of the capsaicin-induced current through TRPV1 in X. laevis oocytes (two-electrode voltage clamp, peptide co-applied with capsaicin; concentration-response curve) in assay [7] was 6900 nM.

Values taken from PMC5192466, “Kunitz-Type Peptide HCRG21 from the Sea Anemone Heteractis crispa Is a Full Antagonist of the TRPV1 Receptor” (Marine Drugs, 2016).
